From patent US20170219602A1

Key:
[1] = target: IgE antibodies of serum A; assay: ImmunoCAP inhibition, inhibitor 100 µg/mL, competitor rEqu c s on solid phase
[2] = target: IgE antibodies of serum C; assay: as above
[3] = target: IgE antibodies of serum B; assay: as above
[4] = target: IgE antibodies of serum D; assay: as above
[5] = target: IgE antibodies of serum E; assay: as above
[6] = target: IgE antibodies of serum A; assay: ImmunoCAP inhibition, inhibitor 100 µg/mL, horse dander extract solid phase
[7] = target: IgE antibodies of serum C; assay: as above
[8] = target: IgE antibodies of serum B; assay: as above
[9] = target: IgE antibodies of serum D; assay: as above
[10] = target: IgE antibodies of serum E; assay: as above
[11] = target: IgE antibodies of serum A; assay: ImmunoCAP inhibition, inhibitor 100 µg/ml, horse dander extract solid phase
[12] = target: IgE antibodies of serum C; assay: as above
[13] = target: IgE antibodies of serum B; assay: as above
[14] = target: IgE antibodies of serum D; assay: as above
[15] = target: IgE antibodies of serum E; assay: as above
[16] = target: IgE antibodies of serum A; assay: ImmunoCAP inhibition, inhibitor 100 µg/mL, competitor rFel d 1 on solid phase
[17] = target: IgE antibodies of serum C; assay: as above
[18] = target: IgE antibodies of serum B; assay: as above
[19] = target: IgE antibodies of serum D; assay: as above
[20] = target: IgE antibodies of serum E; assay: as above
[21] = target: IgE antibodies of serum A; assay: ImmunoCAP inhibition, inhibitor 100 µg/ml, cat dander extract solid phase
[22] = target: IgE antibodies of serum C; assay: as above
[23] = target: IgE antibodies of serum B; assay: as above
[24] = target: IgE antibodies of serum D; assay: as above
[25] = target: IgE antibodies of serum E; assay: as above

Inhibition (%) [1]	Inhibition (%) [2]	Inhibition (%) [3]	Inhibition (%) [4]	Inhibition (%) [5]	Inhibition (%) [6]	Inhibition (%) [7]	Inhibition (%) [8]	Inhibition (%) [9]	Inhibition (%) [10]	Inhibition (%) [16]	Inhibition (%) [17]	Inhibition (%) [18]	Inhibition (%) [19]	Inhibition (%) [20]	Binder	also measured
12%	7%	5%	8%	4%	-10%	0%	-2%	-6%	-10%	-5%	-6%	-4%	-2%	-3%	recombinant Equ c 15k (protein, from a related filing, horse) chain 1: ATCPAVATDIASFFLLPDSLFKLQLIKYQAPPEAKDATMQVKQCINEISAGDRYIITETLGKIVLQCGA chain 2: GSGCQLLEDVVEKTITAELSPAEYVEAVQEFIPDEATEKAAIQLKQCYLKQSNETLNDFRTMMNSMYNSAYCALF	Inhibition (%) [11]: -5%; Inhibition (%) [12]: 5%; Inhibition (%) [13]: -2%; Inhibition (%) [14]: 4%; Inhibition (%) [15]: 2%; Inhibition (%) [21]: -2%; Inhibition (%) [22]: -2%; Inhibition (%) [23]: 6%; Inhibition (%) [24]: 0%; Inhibition (%) [25]: 4%
60%	62%	62%	59%	76%	96%	96%	93%	96%	98%	-7%	-2%	-3%	5%	7%	recombinant single chain Equ c s ab (protein) MDICPAVKEDVNIFLTGTPDDYVKKVSQYQRNPVILANAEKLKNCIDKKLTAEDKENALSVLEKIYSSDFCGGGGSGGGGSGGGGSCPSFYAVLGVLSLGSKTLLDTSLNLVNATEPEKVAMGKIQDCYNEAGVITKISDLIIMGTITTSPECISHALSTLTTDVQEGISKLNPLGRLEHHHHHH	
